Results reported in patent US20240279344A1 (CDR LIFE, published 2024).
Values joined by “and” are separate entries in the source; they are usually repeats but may differ in a detail not shown here. Equal entries are not always repeated.

Molecular target: T1, HLA-A2/MAGE-A4 complex, recombinant (HLA-A*02:01 extracellular domain, human b2m, MAGE-A4 peptide 230-239 …) (human, UniProt P04439 25-299 at identity 0.94); P61769 21-119)
T1 construct: also called MAGE-A4 pMHC; MAGE-A4/HLA-A2 complex
Assay: SPR, monovalent

Binder	Kd
M1116 (bispecific antibody, V domains shown, Variant of humanized M0763; tested in SPR as anti-CD3 Fab x anti-MAGE-A4 scFv bispecific) VH: EVQLLESGGGSVQPGGSLRLSCTVSGFSLSNYAMSWVRQAPGKGLEWIGIVSSGGTTYYASWAKGRFTISKDTSKNTVYLQMNSLRAEDTASYYCAKDLYYGPTTYSAANLWGQGTSVTVSS VL: SYELTQPPSVSVSPGQTASITCTADTLSRSYASWYQQKPGQSPVLVIYRDTSRPSGIPERFSGSNSGNTATLTISGTQAMDEADYYCATRPSSGSNFQLFGGGTKLTVL	3.88 nM
M1040 (bispecific antibody, V domains shown, Variant of humanized M0763; tested in SPR as anti-CD3 Fab x anti-MAGE-A4 scFv bispecific) VH: ESQVLESGGGSVQPGGSLRLSCTVSGFSLSNYAMSWVRQAPGKGLEYIGIVSSGGTTYYASWAKGRFTISKDTSKNTVYLQMNSLRAEDTASYYCAKDLYYGPTTYHQLNLWGQGTSVTVSS VL: SYELTQPPSVSVSPGQTASITCTADTLSRSYASWYQQKPGQSPVLVIYRDTSRPSGIPERFSGSNSGNTATLTISGTQAMDEADYYCATSDGSGSNFQLFGGGTKLTVL	0.45 nM
M1038 (bispecific antibody, V domains shown, Variant of humanized M0763; tested in SPR as anti-CD3 Fab x anti-MAGE-A4 scFv bispecific) VH: ESQVLESGGGSVQPGGSLRLSCTVSGFSLSNYAMSWVRQAPGKGLEYIGIVSSGGTTYYASWAKGRFTISKDTSKNTVYLQMNSLRAEDTASYYCAKNVYYGPTTYSAFNLWGQGTSVTVSS VL: SYELTQPPSVSVSPGQTASITCTADTLSRSYASWYQQKPGQSPVLVIYRDTSRPSGIPERFSGSNSGNTATLTISGTQAMDEADYYCATSDGSGSNFQLFGGGTKLTVL	3.6 nM
M1087 (bispecific antibody, V domains shown, Variant of humanized M0763; tested in SPR as anti-CD3 Fab x anti-MAGE-A4 scFv bispecific) VH: EVQLLESGGGSVQPGGSLRLSCTVSGFSLSNYAMSWVRQAPGKGLEWIGIVSSGGTTYYASWAKGRFTISKDTSKNTVYLQMNSLRAEDTASYYCAKDLYYGPTTYSAFNLWGQGTSVTVSS VL: SYELTQPPSVSVSPGQTASITCTADTLSRSYASWYQQKPGQSPVLVIYRDTSRPSGIPERFSGSNSGNTATLTISGTQAMDEADYYCATRDSSGSNFQLFGGGTKLTVL	0.82 nM
M1051 (bispecific antibody, V domains shown, Variant of humanized M0763; tested in SPR as anti-CD3 Fab x anti-MAGE-A4 scFv bispecific) VH: ESQVLESGGGSVQPGGSLRLSCTVSGFSLSNYAMSWVRQAPGKGLEYIGIVSSGGRKRYASWAKGRFTISKDTSKNTVYLQMNSLRAEDTASYYCAKDLYYGPTTYSAFNLWGQGTSVTVSS VL: SYELTQPPSVSVSPGQTASITCTADTLSRSYASWYQQKPGQSPVLVIYRDTSRPSGIPERFSGSNSGNTATLTISGTQAMDEADYYCATSDGSGSNFQLFGGGTKLTVL	5 nM
M1041 (bispecific antibody, V domains shown, Variant of humanized M0763; tested in SPR as anti-CD3 Fab x anti-MAGE-A4 scFv bispecific) VH: ESQVLESGGGSVQPGGSLRLSCTVSGFSLSNYAMSWVRQAPGKGLEYIGIVSSGGTTYYASWAKGRFTISKDTSKNTVYLQMNSLRAEDTASYYCAKDLYYGPTTYSAFNLWGQGTSVTVSS VL: SYELTQPPSVSVSPGQTASITCTADTLSRSYASWYQQKPGQSPVLVIYRDTSRPSGIPERFSGSNSGNTATLTISGTQAMDEADYYCATRPSSGSNFQLFGGGTKLTVL	0.24 nM
M1037 (bispecific antibody, V domains shown, Variant of humanized M0763; tested in SPR as anti-CD3 Fab x anti-MAGE-A4 scFv bispecific) VH: ESQVLESGGGSVQPGGSLRLSCTVSGFSLSNYAMSWVRQAPGKGLEYIGIVSSGGTTYYASWAKGRFTISKDTSKNTVYLQMNSLRAEDTASYYCAKDLYYGPTTYHDLNLWGQGTSVTVSS VL: SYELTQPPSVSVSPGQTASITCTADTLSRSYASWYQQKPGQSPVLVIYRDTSRPSGIPERFSGSNSGNTATLTISGTQAMDEADYYCATSDGSGSNFQLFGGGTKLTVL	0.4 nM
M1086 (bispecific antibody, V domains shown, Variant of humanized M0763; tested in SPR as anti-CD3 Fab x anti-MAGE-A4 scFv bispecific) VH: EVQLLESGGGSVQPGGSLRLSCTVSGFSLSNYAMSWVRQAPGKGLEWIGIVSSGGTTYYASWAKGRFTISKDTSKNTVYLQMNSLRAEDTASYYCAKDLYYGPTTYSAFNLWGQGTSVTVSS VL: SYELTQPPSVSVSPGQTASITCTADTLSRSYASWYQQKPGQSPVLVIYRDTSRPSGIPERFSGSNSGNTATLTISGTQAMDEADYYCATSPSSGSNFQLFGGGTKLTVL	7.02 nM
M1036 (bispecific antibody, V domains shown, Variant of humanized M0763; tested in SPR as anti-CD3 Fab x anti-MAGE-A4 scFv bispecific) VH: ESQVLESGGGSVQPGGSLRLSCTVSGFSLSNYAMSWVRQAPGKGLEYIGIVSSGGTTYYASWAKGRFTISKDTSKNTVYLQMNSLRAEDTASYYCAKDLYYGPTTQSAFNLWGQGTSVTVSS VL: SYELTQPPSVSVSPGQTASITCTADTLSRSYASWYQQKPGQSPVLVIYRDTSRPSGIPERFSGSNSGNTATLTISGTQAMDEADYYCATSDGSGSNFQLFGGGTKLTVL	4.9 nM

The remaining lines, values ahead:

Kd	Binder
0.99 nM	M1097 (bispecific antibody, V domains shown, Variant of humanized M0763; tested in SPR as anti-CD3 Fab x anti-MAGE-A4 scFv bispecific) VH: EVQLLESGGGSVQPGGSLRLSCTVSGFSLSNYAMSWVRQAPGKGLEWIGIVSSGGTTYYASWAKGRFTISKDTSKNTVYLQMNSLRAEDTASYYCAKNVYYGPTTYSAFNLWGQGTSVTVSS VL: SYELTQPPSVSVSPGQTASITCTADTLSRSYASWYQQKPGQSPVLVIYRDTSRPSGIPERFSGSNSGNTATLTISGTQAMDEADYYCATRPSSGSNFQLFGGGTKLTVL
2.13 nM	M1099 (bispecific antibody, V domains shown, Variant of humanized M0763; tested in SPR as anti-CD3 Fab x anti-MAGE-A4 scFv bispecific) VH: EVQLLESGGGSVQPGGSLRLSCTVSGFSLSNYAMSWVRQAPGKGLEWIGIVSSGGTTYYASWAKGRFTISKDTSKNTVYLQMNSLRAEDTASYYCAKNVYYGPTTQSAFNLWGQGTSVTVSS VL: SYELTQPPSVSVSPGQTASITCTADTLSRSYASWYQQKPGQSPVLVIYRDTSRPSGIPERFSGSNSGNTATLTISGTQAMDEADYYCATSDGSGSNFQLFGGGTKLTVL
1.34 nM and 0.79 nM	M1089 (bispecific antibody, V domains shown, Variant of humanized M0763; tested in SPR as anti-CD3 Fab x anti-MAGE-A4 scFv bispecific) VH: EVQLLESGGGSVQPGGSLRLSCTVSGFSLSNYAMSWVRQAPGKGLEWIGIVSSGGTTYYASWAKGRFTISKDTSKNTVYLQMNSLRAEDTASYYCAKDLYYGPTTYSAFNLWGQGTSVTVSS VL: SYELTQPPSVSVSPGQTASITCTADTLSRSYASWYQQKPGQSPVLVIYRDTSRPSGIPERFSGSNSGNTATLTISGTQAMDEADYYCATRPASGSNFQLFGGGTKLTVL
1.8 nM	M1090 (bispecific antibody, V domains shown, Variant of humanized M0763; tested in SPR as anti-CD3 Fab x anti-MAGE-A4 scFv bispecific) VH: EVQLLESGGGSVQPGGSLRLSCTVSGFSLSNYAMSWVRQAPGKGLEWIGIVSSGGTTYYASWAKGRFTISKDTSKNTVYLQMNSLRAEDTASYYCAKDLYYGPTTYSAFNLWGQGTSVTVSS VL: SYELTQPPSVSVSPGQTASITCTADTLSRSYASWYQQKPGQSPVLVIYRDTSRPSGIPERFSGSNSGNTATLTISGTQAMDEADYYCATKPSSGSNFQLFGGGTKLTVL
1.73 nM	M1098 (bispecific antibody, V domains shown, Variant of humanized M0763; tested in SPR as anti-CD3 Fab x anti-MAGE-A4 scFv bispecific) VH: EVQLLESGGGSVQPGGSLRLSCTVSGFSLSNYAMSWVRQAPGKGLEWIGIVSSGGTTYYASWAKGRFTISKDTSKNTVYLQMNSLRAEDTASYYCAKNVYYGPTTQSAFNLWGQGTSVTVSS VL: SYELTQPPSVSVSPGQTASITCTADTLSRSYASWYQQKPGQSPVLVIYRDTSRPSGIPERFSGSNSGNTATLTISGTQAMDEADYYCATRPSSGSNFQLFGGGTKLTVL
3.9 nM	M1088 (bispecific antibody, V domains shown, Variant of humanized M0763; tested in SPR as anti-CD3 Fab x anti-MAGE-A4 scFv bispecific) VH: EVQLLESGGGSVQPGGSLRLSCTVSGFSLSNYAMSWVRQAPGKGLEWIGIVSSGGTTYYASWAKGRFTISKDTSKNTVYLQMNSLRAEDTASYYCAKDLYYGPTTYSAFNLWGQGTSVTVSS VL: SYELTQPPSVSVSPGQTASITCTADTLSRSYASWYQQKPGQSPVLVIYRDTSRPSGIPERFSGSNSGNTATLTISGTQAMDEADYYCATRPGSGSNFQLFGGGTKLTVL
3.23 nM	M1096 (bispecific antibody, V domains shown, Variant of humanized M0763; tested in SPR as anti-CD3 Fab x anti-MAGE-A4 scFv bispecific) VH: EVQLLESGGGSVQPGGSLRLSCTVSGFSLSNYAMSWVRQAPGKGLEWIGIVSSGGTTYYASWAKGRFTISKDTSKNTVYLQMNSLRAEDTASYYCAKDLYYGPTTQSAFNLWGQGTSVTVSS VL: SYELTQPPSVSVSPGQTASITCTADTLSRSYASWYQQKPGQSPVLVIYRDTSRPSGIPERFSGSNSGNTATLTISGTQAMDEADYYCATRPSSGSNFQLFGGGTKLTVL
